Test results published in paper PMC9982451.

T1: SBDMmo (sulfur binding domain of Type IV REase MmoMcrA) (Morganella morganii)
T1 chain: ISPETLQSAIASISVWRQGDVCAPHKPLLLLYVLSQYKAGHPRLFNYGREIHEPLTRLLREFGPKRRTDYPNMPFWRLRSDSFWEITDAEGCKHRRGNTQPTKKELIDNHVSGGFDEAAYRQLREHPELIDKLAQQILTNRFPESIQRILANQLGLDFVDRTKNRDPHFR


Molecular target: T1, SBDMmo (sulfur binding domain of Type …)
Assay: EMSA

Row | Binder | binding result
1 | GTCGGCCCCA (ssDNA, phosphorothioate between G4 and G5 (stereochemistry not stated)) [PT-ssDNA GGCC-10F] | no binding
2 | PT-dsDNA GGCC-10F/10R (dsDNA, phosphorothioate between G4 and G5 of strand 1 (hemi-PT; stereochemistry not stated)) DNA 1: GTCGGCCCCA DNA 2: TGGGGCCGAC | binds
